Results published in US10689628B2, “Method of making variant LovD polypeptides” (THE REGENTS OF THE UNIVERSITY OF CALIFORNIA, priority 2009, dated 2020).
Changes are numbered by the printed parent chain. Names may count otherwise. “And” between values parts separate entries of the source, which are not always exact repeats. Identical values can stand only once. “Also recorded” adds a separate entry of the source.

Columns and labels:
[1] = target: T1, LovD (Aspergillus terreus, UniProt Q9Y7D1); settings: cited from earlier work; for substrate quality for LovD (in words): WO 2007/139871, acyl-CoA substrates; for apparent kcat: WO 2007/139871, acyl donor with LovD and monacolin J; for conversion / acylation of monacolin J with acyl-CoA: WO 2007/139871: 1 mM monacolin J, 4 mM acyl-CoA, 10 uM LovD, 10 hours
T1 construct: made in house; host or cells: E. coli BL21(DE3)/pAW31

[2] = target: T1, LovD; experiment: Initial velocities of thioester substrates with pure LovD; type: biochemical; settings: 1 mM MJ, 4 mM thioester substrate, 10 uM pure LovD, 50 mM HEPES, pH 7.9
[3] = Native gel / SDS-PAGE of LovD proteins (oligomer, insoluble protein); type: physicochemical; settings: for native gel: oligomer / monomer / stability (in words): DTT fixed at 2 mM
Experimental: FIG. 2. (a) SDS-PAGE gel LovD protein (WT) from E. coli BL21(DE3)/pAW31; (b) native gel of LovD protein (WT) and A1-A8 respectively, DTT was fixed at 2 mM for all samples.
LovD protein was purified to homogeneity by one step Ni-NTA column (FIG. 2a). […] The disulfide bonds between the proteins are spurious for protein crystallization because the monomer and oligomer are different species (see, e.g. Nemoto et al., 2006; J Appl Physiol 100(5):1688-91). One of our purposes was to remove the intermolecular disulfide bonds. By replacing the cysteine residues with alanine, we hope the resultant LovD mutant can keep the acyl-transferase activity while breaking the intermolecular disulfide bonds. […] We reasoned that the solubility of LovD may be changed when the intermolecular disulfide bonds between wild type LovD was eliminated (see, e.g. Lindberg et al., M. 2004; Proc Natl Acad Sci USA 101(45):15893-8).
We ran the native gel of all the mutant proteins together with the wild type LovD protein (FIG. 2b).

[4] = tested on: E. coli YT2; experiment: Whole-cell biocatalysis, MJ acid and DMB-S-MMP to simvastatin acid (Example 1); settings: for time to convert 15 mM MJ acid into simvastatin acid: whole cell, culture concentrated 10 times, 18 mM DMB-S-MMP; for whole cell activity compared to the wild type (in words): 8 hours conversion, alanine scanning mutants
Experimental: Whole cell biocatalytic activities based on the conversion from MJ acid and DMB-S-MMP (gray column) and soluble protein expression level comparison between the wild type LovD and the mutants (black column). For the whole cell activity, the LB culture was concentrated 10 times to mimic high density fermentation, 15 mM MJ acid and 18 mM DMB-S-MMP were used to compare the conversion. The conversion based on 8 hours was used to compare the whole cell activity between the wild type LovD and the mutants. The wild type LovD conversion was normalized to 100%, the data points are averaged values of two runs.
The LovD wild type and all mutants were cultured side-by-side for comparison. A single colony of the freshly transformed strains was used to inoculate a 5 ml LB culture supplemented with 35 mg/L kan and grown overnight at 37° C. The next morning, 100 μl of the overnight culture (0.2%) was inoculated into 50 ml LB medium with Kan. When OD600 reached 0.4˜0.6, 0.1 mM IPTG was added to the culture and expression of LovD was performed at 20° C. for 16 hrs. To mimic the high density fermentation conditions, the cells were concentrated 10-fold before addition of substrates. A 14 ml aliquot of the culture was collected by centrifugation (4° C., 4000 g, 10 min). The cell pellet was gently resuspended in 1330 ml of the supernatant, followed by addition of 70 ml of a MJ acid stock solution (300 mM in water) to make final concentration 15 mM. The concentrated culture was then resuspended and separated into seven 200 μl samples, 1 μl of pure DMB-S-MMP was added to each sample (final concentration ˜20 mM). The cultures were then shaken at 300 rpm at room temperature. At each time point, a total extraction was performed by adding 10 μl of 20% SDS to completely lyse the cells, followed by liquid—liquid extraction with 500 μl EA/2% TFA. The organic phase was removed, evaporated, and redissolved in 500 μl ACN for HPLC analysis.
We then tested the in vivo activity of the nine mutants in comparison to the wild type LovD. Both the mutants and the wild type LovD strains were grown in LB media, expressed and concentrated 10 times to mimic the high density fermentation after 16 hours expression at 20° C. Both MJ acid and DMB-S-MMP were added to final 15 mM and 18 mM respectively to start the reaction. At 8 hours, 100 μl sample culture was taken out to check the total conversion from MJ acid to simvastatin acid.

[5] = tested on: MJ acid and DMB-S-MMP; experiment: Kinetic assay of LovD wild type and mutants towards MJ acid and DMB-S-MMP; type: biochemical
Experimental: Dimethyl sulfoxide (DMSO) was added to a final concentration of 10% to facilitate the solubilization of DMB-S-MMP. To compare the turnover rate of all mutants and the wild type protein, the MJ acid concentration was set at 1 mM and the DMB-S-MMP was set at 2 mM, the protein concentration was fixed at 10 uM, after the reaction was performed at room temperature for 2 hours, the reaction was quenched by adding EA/2% TFA. The organic phase was dried and redissolved in ACN for HPLC analysis.
The concentration of DMB-S-MMP was fixed at 2 mM and MJ acid concentration was varied from 0.25 mM to 2.0 mM. […] For the rest LovD mutant proteins, we only checked the conversion of one time point.
To obtain KM values for MJA and kcat, the DMB-SMMP concentration was fixed at 2 mM, while the concentration of MJA was varied from 0.25 to 5 mM. To obtain KM values for DMB-SMMP and kcat, the MJA concentration was fixed at 2 mM, while the concentration of DMB-SMMP was varied from 0.5 to 5 mM. Dimethyl sulfoxide (DMSO) was added to a final concentration of 10% to facilitate the solubilization of DMB-SMMP. At different time points of the kinetic assay, an aliquot of the reaction mixture was removed, quenched with 1% TFA and extracted with EA containing 1% acetic acid. The organic phase was separated, dried, resolubilized by acetonitrile (ACN) and analyzed by a Beckman Gold HPLC using a reverse phase C18 column (Alltech Apollo 5μ, 150 mm×4.6 mm) and a linear gradient: 60% ACN in water (0.1% trifluoroacetic acid (TFA)) to 95% ACN in water (0.1% TFA) for 10 min, 1 mL/min. Conversion of MJA to SVA was measured by integration of the peaks at 238 nm.

[6] = Soluble LovD protein expression level (Ni-NTA purification, Bradford assay); settings: purified from 50 ml LB culture, Bradford
Experimental: Each mutant was transformed into E. coli YT2 strain and selected by Kanamycin (Kan). The transformant was grown in 500 ml LB-Kan media at 37° C. to OD600 0.4˜0.6, then 0.1 mM IPTG was added to induce protein expression at 20° C. for 16 hours. Cells were collected by centrifugation, resuspended in 30 ml Buffer A (50 mM Tris-HCl, pH 8.0, 2 mM 2 mM EDTA), and lysed by sonication. Cell debris and insoluble proteins were removed by centrifugation (16,000 g, 4° C., 1 h). To the cleared lysate, 2 ml of Ni-NTA resin (Qiagen) was added. Each mutant was purified using a step gradient of buffer A with increasing concentration of imidazole. Pure (>95%) LovD proteins were eluted in buffer A containing 250 mM imidazole, and then buffer exchanged into buffer A without imidazole. Glycerol was added to a final concentration of 10%, the proteins were aliquoted, and flash frozen.
All nine mutants and the wild type LovD proteins were purified at the same time and under the same conditions. The proteins were purified from 50 ml LB culture. LovD was eluted in the last fraction which contains 250 mM imidazole. The concentration of the last fraction was determined by Bradford Assay using BSA as the standard.
Each expression plasmid encoding LovD mutant was transformed into E. coli BL21(DE3). The transformant was cultured in 50 mL LB medium containing 35 mg/L Kan at 37° C. to optical density (OD600) value of 0.4˜0.6. Protein expression was induced with 0.1 mM IPTG and the subsequent expression was performed at 25° C. for 16 h. Cells were collected by centrifugation (2,000 g, 4° C., 15 min), resuspended in 7 mL Buffer A (50 mM Tris-HCl, pH 8.0, 2 mM DTT, 2 mM EDTA), and lysed by sonication. Cell debris and insoluble proteins were removed by centrifugation (20,000 g, 4° C., 1 h). To the cleared cell lysate, 0.5 mL of Ni-NTA resin (Qiagen, Valencia, Calif.) was added to each sample. […] The protein concentrations were qualitatively assessed by SDS-PAGE and quantitatively determined by the Bradford protein assay using bovine serum albumin (BSA) as the standard.

[7] = tested on: E. coli YT2; experiment: Whole-cell biocatalysis activity of LovD G0 and directed-evolution mutants (SVA synthesis)
Experimental: Wild type LovD and all mutants were cultured in parallel for comparison. A single colony of the freshly transformed YT2 competent cells was used to inoculate a 5 mL LB culture supplemented with 35 mg/L kanamycin. Following overnight growth at 37° C., 100 μl of the culture was inoculated into 50 mL LB medium supplemented with 35 mg/L kanamycin. When OD600 reached 0.4˜0.6, 0.1 mM IPTG was added to the cultures and expression of all LovD variants was performed at 25° C. for 16 hr. To mimic the high density fermentation conditions, the cells were then concentrated 10-fold before addition of substrates. A 10 ml aliquot of each culture was collected by centrifugation (4° C., 2,000 g, 10 min). The cell pellet was gently resuspended in 1 ml of the medium supernatant, followed by addition of 70 μl of MJA (300 mM stock) to a final concentration of 15 mM. The concentrated culture was then divided into seven 200 μl aliquots and 1 μl of pure DMB-SMMP was added to each sample to a final concentration of 20 mM. The small cultures were then shaken at 300 rpm at 25° C. At each time point, a complete extraction of one culture aliquot was performed by adding 10 μl of 20% SDS for cells lysis, followed by extraction with 500 μl ethyl acetate containing 1% trifluoroacetic acid TFA. The organic phase was removed, evaporated, and redissolved in 500 μl acetonitrile for HPLC analysis. The whole-cell activity was determined by fitting the linear regions of the conversion time course plot.
Parent LovD G0 and all mutants were cultured in parallel for comparison. A single colony of the freshly transformed YT2 competent cells was used to inoculate a 5 mL LB culture supplemented with 35 mg/L kanamycin. Following overnight growth at 37° C., 100 μl of the culture was inoculated into 50 mL LB medium supplemented with 35 mg/L kanamycin. When OD600 reached 0.4˜0.6, 0.1 mM IPTG was added to the cultures and expression of all LovD variants was performed at 25° C. for 16 hr. To mimic the high density fermentation conditions, the cells were then concentrated 10-fold before addition of substrates. A 10 ml aliquot of each culture was collected by centrifugation (4° C., 2,000 g, 10 min). The cell pellet was gently resuspended in 1 ml of the medium supernatant, followed by addition of 70 μl of MJA (300 mM stock) to a final concentration of 15 mM. The concentrated culture was then divided into seven 200 μl aliquots and 1 μl of pure DMB-SMMP was added to each sample to a final concentration of 20 mM. The small cultures were then shaken at 300 rpm at 25° C. At each time point, a complete extraction of one culture aliquot was performed by adding 10 μl of 20% SDS for cells lysis, followed by extraction with 500 μl ethyl acetate containing 1% trifluoroacetic acid TFA. The organic phase was removed, evaporated, and redissolved in 500 μl acetonitrile for HPLC analysis. The whole-cell activity was determined by fitting the linear regions of the conversion time course plot.

[8] = DMB-S-MMP fixed at 2 mM, MJ acid 0.25 mM to 2.0 mM

CC(=O)CC(=O)SCCNC(=O)CCNC(=O)[C@H](O)C(C)(C)COP(=O)(O)OP(=O)(O)OC[C@H]1O[C@@H](n2cnc3c(N)ncnc32)[C@H](O)[C@@H]1OP(=O)(O)O [Acetoacetyl-CoA]
substrate quality for LovD (in words) [1]: excellent substrates

CCOC(=O)CCSC(=O)C(C)(C)CC [DMB-S-EMP, dimethylbutyryl-S-ethyl mercaptopropionate]
Initial Velocity (ki) [2]: 0.70 min⁻¹

CCC(C)(C)C(=O)SCCCC(=O)OC [DMB-S-MMB, dimethylbutyryl-S-methyl mercaptobutyrate]
Initial Velocity (ki) [2]: 0.78 min⁻¹

CCC(C)(C)C(=O)SCCC(=O)O [DMB-S-MPA]
Initial Velocity (ki) [2]: 0.08 min⁻¹

CCC(C)(C)C(=O)SCC(=O)OC [DMB-S-MTG, dimethylbutyryl-S-methyl thioglycolate]
Initial Velocity (ki) [2]: 0.03 min⁻¹

CCC(C)(C)C(=O)SCCNC(C)=O [DMB-S-NAC, α-dimethylbutyryl-SNAC]
Initial Velocity (ki) [2]: 0.02 min⁻¹

CCCC(=O)SCCNC(C)=O [SNAC, butyryl-SNAC]
apparent kcat [1]: 0.09 min⁻¹

CC(C)(COP(=O)(O)OP(=O)(O)OC[C@H]1O[C@@H](n2cnc3c(N)ncnc32)[C@H](O)[C@@H]1OP(=O)(O)O)[C@@H](O)C(=O)NCCC(=O)NCCSC(=O)c1ccccc1 [benzoyl-CoA]
apparent kcat [1]: 0.16 min⁻¹
conversion / acylation of monacolin J with acyl-CoA [1]: ~70%

CCCC(=O)SCCNC(=O)CCNC(=O)[C@H](O)C(C)(C)COP(=O)(O)OP(=O)(O)OC[C@H]1O[C@@H](n2cnc3c(N)ncnc32)[C@H](O)[C@@H]1OP(=O)(O)O [butyryl-CoA]
substrate quality for LovD (in words) [1]: optimal alkylacyl-CoA substrate

C/C=C/C(=O)SCCNC(=O)CCNC(=O)[C@H](O)C(C)(C)COP(=O)(O)OP(=O)(O)OC[C@H]1O[C@@H](n2cnc3c(N)ncnc32)[C@H](O)[C@@H]1OP(=O)(O)O [crotonyl-CoA]
conversion / acylation of monacolin J with acyl-CoA [1]: 6%

CC(C)(COP(=O)(O)OP(=O)(O)OC[C@H]1O[C@@H](n2cnc3c(N)ncnc32)[C@H](O)[C@@H]1OP(=O)(O)O)[C@@H](O)C(=O)NCCC(=O)NCCSC(=O)CC(=O)O [malonyl-CoA]
substrate quality for LovD (in words) [1]: inactive

CCCCCCCCCCCCCCCC(=O)SCCNC(=O)CCNC(=O)[C@H](O)C(C)(C)COP(=O)(O)OP(=O)(O)OC[C@H]1O[C@@H](n2cnc3c(N)ncnc32)[C@H](O)[C@@H]1OP(=O)(O)O [palmitoyl-CoA]
substrate quality for LovD (in words) [1]: inactive

CC[C@H](C)C(=O)SCCNC(C)=O [α-S-methylbutyryl-SNAC]
apparent kcat [1]: ~0.04 min⁻¹

CC(O)CC(=O)SCCNC(=O)CCNC(=O)[C@H](O)C(C)(C)COP(=O)(O)OP(=O)(O)OC[C@H]1O[C@@H](n2cnc3c(N)ncnc32)[C@H](O)[C@@H]1OP(=O)(O)O (stereo partly drawn) [β-hydroxylbutyryl-CoA]
substrate quality for LovD (in words) [1]: excellent substrates

B1: wild type LovD: A. terreus LovD acyltransferase polypeptide, SEQ ID NO: 1 (protein, listed as Aspergillus terreus)
chain: MGSIIDAAAAADPVVLMETAFRKAVKSRQIPGAVIMARDCSGNLNYTRCFGARTVRRDECNQLPPLQVDTPCRLASATKLLTTIMALQCMERGLVDLDETVDRLLPDLSAMPVLEGFDDAGNARLRERRGKITLRHLLTHTSGLSYVFLHPLLREYMAQGHLQSAEKFGIQSRLAPPAVNDPGAEWIYGANLDWAGKLVERATGLDLEQYLQENICAPLGITDMTFKLQQRPDMLARRADQTHRNSADGRLRYDDSVYFRADGEECFGGQGVFSGPGSYMKVLHSLLKRDGLLLQPQTVDLMFQPALEPRLEEQMNQHMDASPHINYGGPMPMVLRRSFGLGGIIALEDLDGENWRRKGSLTFGGGPNIVWQIDPKAGLCTLAFFQLEPWNDPVCRDLTRTFEHAIYAQYQQG
fraction of LovD protein forming oligomer ([3]; native gel, even at high DTT concentration): ~20%
fraction of expressed LovD protein insoluble ([3]; overexpressed in E. coli): more than 50%
time to convert 15 mM MJ acid into simvastatin acid [4]: 12 h
Km [5, 8]: 640 µM
kcat [5, 8]: 0.62 min⁻¹
kcat ([5]; FIG. 1 legend, MJ acid and DMB-S-MMP to simvastatin): 0.6 min'

B2: A7: LovD C266A mutant (protein, UniProt Q9Y7D1 1-413, looked up, variant C266A)
Monacolin J acid …: B1 chain with C266A
native gel: oligomer / monomer / stability (in words) [3]: not very stable; also recorded: less proteins

B3: A9: LovD C395A mutant (protein, UniProt Q9Y7D1 1-413, looked up, variant C395A)
Monacolin J acid …: B1 chain with C395A
native gel: oligomer / monomer / stability (in words) [3]: no soluble proteins at all
whole cell activity compared to the wild type (in words) [4]: no activity

B4: A1: LovD C40A mutant (protein, UniProt Q9Y7D1 1-413, looked up, variant C40A)
Monacolin J acid …: B1 chain with C40A
native gel: oligomer / monomer / stability (in words) [3]: slightly more monomers; also recorded: slightly less oligomer
whole cell activity higher than the wild type ([4]; based on 8 hours conversion, wild type normalized to 100%): ~25% and 31%
Km [5, 8]: 680 µM
kcat [5, 8]: 0.62 min⁻¹
solubility more than the wild type [6]: 28%

B5: A8: LovD C380A mutant (protein, UniProt Q9Y7D1 1-413, looked up, variant C380A)
Monacolin J acid …: B1 chain with C380A
native gel: oligomer / monomer / stability (in words) [3]: very similar to WT

B6: A4: LovD C72A mutant (protein, UniProt Q9Y7D1 1-413, looked up, variant C72A)
Monacolin J acid …: B1 chain with C72A
native gel: oligomer / monomer / stability (in words) [3]: not very stable; also recorded: less proteins

B7: A6: LovD C216A mutant (protein, UniProt Q9Y7D1 1-413, looked up, variant C216A)
Monacolin J acid …: B1 chain with C216A
native gel: oligomer / monomer / stability (in words) [3]: very similar to WT

B8: A1N3: LovD double mutant C40A/C60N, starting point (generation zero) of directed evolution (protein, UniProt Q9Y7D1 1-413, looked up, variant C40A C60N)
Monacolin J acid …: B1 chain with C40A, C60N
faster than the single mutant A1 and N3 ([4]; whole cell time course): about 20%
time to convert 15 mM MJ acid into simvastatin acid [4]: ~8 h
whole cell SVA production rate ([7]; 25° C.): ~1.7 mM per hour
whole cell activity when expressed at 32° C. (in words) ([7]; 32° C.): did not show any activity
whole-cell conversion rate ([7]; normalized to 1 in FIG. 13): 1.7 mM/h

B9: A3: LovD C60A mutant (protein, UniProt Q9Y7D1 1-413, looked up, variant C60A)
Monacolin J acid …: B1 chain with C60A
native gel: oligomer / monomer / stability (in words) [3]: almost all monomers; also recorded: eliminated most of the oligomer
whole cell activity compared to the wild type (in words) [4]: slightly higher activity
Km [5, 8]: 660 µM
kcat [5, 8]: 0.64 min⁻¹

B10: A5: LovD C89A mutant (protein, UniProt Q9Y7D1 1-413, looked up, variant C89A)
Monacolin J acid …: B1 chain with C89A
native gel: oligomer / monomer / stability (in words) [3]: not very stable; also recorded: less proteins

B11: A2: LovD C49A mutant (protein, UniProt Q9Y7D1 1-413, looked up, variant C49A)
Monacolin J acid …: B1 chain with C49A
native gel: oligomer / monomer / stability (in words) [3]: very similar to WT
